Changes are numbered by the printed parent chain.

Broadly, the Kd is the free concentration of one partner at which half of the binding sites on the other are occupied at equilibrium, for simple one-to-one binding. Low readings indicate tighter binding, high ones weaker binding.

Assay [1] deals with T1, mouse TREM2 Fc fusion protein (mouse, UniProt Q99NH8 19-171).
T1 construct: also called mTREM2-Fc; not shown: Fc part not specified
T1 sequence (looked up): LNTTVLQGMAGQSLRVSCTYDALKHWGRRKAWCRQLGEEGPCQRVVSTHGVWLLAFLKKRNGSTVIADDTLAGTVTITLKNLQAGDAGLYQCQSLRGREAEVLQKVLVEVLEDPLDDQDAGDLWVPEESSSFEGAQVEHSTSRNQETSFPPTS
Kind of assay: ForteBio or MSD-SET, avid.

The target of assay [2] is T2, human TREM2 Fc fusion protein (human, UniProt Q9NZC2 19-174).
T2 construct: also called hTREM2-Fc; not shown: Fc part not specified
T2 sequence: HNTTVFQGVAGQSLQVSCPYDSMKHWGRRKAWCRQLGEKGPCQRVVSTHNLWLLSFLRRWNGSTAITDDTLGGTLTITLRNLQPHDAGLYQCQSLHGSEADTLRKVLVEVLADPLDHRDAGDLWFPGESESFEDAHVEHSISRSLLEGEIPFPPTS
Briefly: ForteBio or MSD-SET, avid. On the technique in general: In BLI a coated tip is dipped into the sample, and binding shifts an interference pattern.

Assay [3] concerns the target T3, human monomeric His tagged TREM2 protein (human, UniProt Q9NZC2 19-174).
T3 construct: also called hTREM2-HIS
T3 sequence: T2 sequence
Kind of assay: ForteBio or MSD-SET, monovalent.

A further assay has as its target T4, mouse TREM2 on cells (mouse, UniProt Q99NH8 19-227).
T4 construct: whole, on cells; Used for the recombinant protein on BWZ/BW cells (with mouse DAP12) and for the native protein on mouse macrophages and dendritic cells; the cell type stands under assay; also called mTREM2; mTrem2
T4 sequence (looked up): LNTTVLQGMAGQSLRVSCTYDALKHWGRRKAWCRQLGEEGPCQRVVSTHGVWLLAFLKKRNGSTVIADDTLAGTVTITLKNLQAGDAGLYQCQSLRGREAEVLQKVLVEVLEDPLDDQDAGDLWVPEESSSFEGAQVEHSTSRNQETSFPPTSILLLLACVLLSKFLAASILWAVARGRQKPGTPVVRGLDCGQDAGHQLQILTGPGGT
Kind of assay: FACS, mTrem2 cells. (In flow cytometry, cells or beads pass a laser one at a time.)

B1: Ab36 (antibody, human IgG1, V domains shown)
VH: QVQLVESGGGVVQPGRSLRLSCAASGFTFSTYGMHWVRQAPGKGLEWVAVIWYDGSNKYYADSVKGRFTISRDNSKNTLYLQMNSLRAEDTAVYYCARGTGAAAASPAFDIWGQGTMVTVSS
VL: EIVLTQSPATLSLSPGERATLSCRASQSVSSYLAWYQQKPGQAPRLLIYDASNRATGIPARFSGSGSGTDFTLTISSLEPEDFAVYYCQQLFDWPTFGGGTKVEIK
notes: human IgG1
Turning to B1, in assay [1], the binding result is “no binding”. In addition, the Kd in assay [2] amounted to 0.465 nM; in assay [3] it was 4.01 nM. The MFI in the assay with mouse TREM2 on cells turned out to be 1260 MFI.

B2: Ab44 (antibody, human IgG1, V domains shown)
VH: B1 VH
VL: B1 VL with L4M, A51S, F92V, D93H
notes: human IgG1
In the case of B2, in assay [1], the binding result was “no binding”. The Kd was 0.562 nM in assay [2] and 9.46 nM in assay [3]. Besides, in the assay with mouse TREM2 on cells, the MFI came out at 1210 MFI.

B3: Ab12 (antibody, human IgG1, V domains shown)
VH: EVQLVQSGAEVKKPGESLKISCKGSGYSFTSYWIGWVRQMPGKGLEWMGIIYPGDSDTRYSPSFQGQVTISADKSISTAYLQWSSLKASDTAMYYCARLGHYSGTVSSYGMDVWGQGTTVTVSS
VL: DIQMTQSPSSLSASVGDRVTITCRASQSISSYLNWYQQKPGKAPKLLIYAASSLQSGVPSRFSGSGSGTDFTLTISSLQPEDFATYYCQQEYAVPYTFGGGTKVEIK
notes: human IgG1
On to B3, for which the Kd in assay [1] was 7.91 nM; in assay [2], 1.19 nM; in assay [3], 2.68 nM. This molecule also had an MFI with mouse TREM2 on cells of 1550 MFI.

B4: Ab40 (antibody, human IgG1, V domains shown)
VH: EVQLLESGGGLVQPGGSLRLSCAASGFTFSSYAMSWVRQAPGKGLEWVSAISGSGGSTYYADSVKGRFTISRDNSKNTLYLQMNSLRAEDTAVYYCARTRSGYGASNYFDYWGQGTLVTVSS
VL: B3 VL with E91G, V94A, Y96I
notes: human IgG1
B4: the results for the Kd in assay [1], in assay [2] and in assay [3] were 6.03 nM, 0.197 nM and 7.97 nM, respectively. The MFI with mouse TREM2 on cells amounted to 577 MFI.

B5: Ab50 (antibody, human IgG1, V domains shown)
VH: QVQLVQSGAEVKKPGASVKVSCKASGYTFTSYYIHWVRQAPGQGLEWMGIINPSGGSTSYAQKFQGRVTMTRDTSTSTVYMELSSLRSEDTAVYYCARAPQESPYVFDIWGQGTMVTVSS
VL: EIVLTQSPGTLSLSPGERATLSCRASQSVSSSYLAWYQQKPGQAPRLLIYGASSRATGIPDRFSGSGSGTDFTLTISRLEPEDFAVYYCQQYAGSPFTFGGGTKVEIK
notes: human IgG1
Consider B5, for which, in assay [1], the binding result is “no binding”. Also, the values for the Kd in assay [2] and in assay [3] were 0.729 nM and 36.4 nM, respectively. Further, in the assay with mouse TREM2 on cells, the MFI was determined as 325 MFI.

B6: Ab5 (antibody, human IgG1, V domains shown)
VH: B5 VH
VL: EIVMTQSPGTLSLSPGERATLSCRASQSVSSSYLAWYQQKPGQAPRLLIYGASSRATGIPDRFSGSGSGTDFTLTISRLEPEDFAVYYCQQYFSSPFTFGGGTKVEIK
notes: human IgG1
As to B6, in assay [1], the binding result was “no binding”. The Kd amounted to 0.697 nM in assay [2] and 30 nM in assay [3]. Moreover, in the assay with mouse TREM2 on cells, the MFI is 310 MFI.

B7: Ab53 (antibody, human IgG1, V domains shown)
VH: B5 VH
VL: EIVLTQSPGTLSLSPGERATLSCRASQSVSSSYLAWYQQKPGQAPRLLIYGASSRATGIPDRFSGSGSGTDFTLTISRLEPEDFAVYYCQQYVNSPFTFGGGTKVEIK
notes: human IgG1
Take B7: the binding result in assay [1] is listed as “no binding”. Also, the Kd in assay [2] was found to be 0.635 nM; in assay [3], 21.6 nM. In the assay with mouse TREM2 on cells, this molecule gave an MFI of 843 MFI.

B8: Ab13 (antibody, human IgG1, V domains shown)
VH: QVQLVQSGAEVKKPGASVKVSCKASGYTFTSYGISWVRQAPGQGLEWMGWISAYNGNTNYAQKLQGRVTMTTDTSTSTAYMELRSLRSDDTAVYYCARGPSHYYDLAWGQGTLVTVSS
VL: EIVLTQSPATLSLSPGERATLSCRASQSVSSYLAWYQQKPGQAPRLLIYDASNRATGIPARFSGSGSGTDFTLTISSLEPEDFAVYYCQQVSNYPITFGGGTKVEIK
notes: human IgG1
As for B8, the Kd stood at 1.71 nM in assay [1], 1.49 nM in assay [2] and 66.7 nM in assay [3]. The molecule further had an MFI with mouse TREM2 on cells of 3250 MFI.

B9: Ab55 (antibody, human IgG1, V domains shown)
VH: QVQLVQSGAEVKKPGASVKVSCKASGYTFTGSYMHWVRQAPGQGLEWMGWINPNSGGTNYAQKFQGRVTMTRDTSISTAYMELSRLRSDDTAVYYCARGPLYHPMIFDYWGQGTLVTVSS
VL: B8 VL with V91L, N93T, I96L
notes: human IgG1
Turning to B9, the Kd in assay [1] was found to be 1.17 nM; in assay [2] it was 2.22 nM; in assay [3], 91.7 nM. Besides, in the assay with mouse TREM2 on cells, the MFI was determined as 6220 MFI.

B10: Ab48 (antibody, human IgG1, V domains shown)
VH: QVQLVQSGAEVKKPGASVKVSCKASGYTFTSYYMHWVRQAPGQGLEWMGIINPSGGSTTYAQKFQGRVTMTRDTSTSTVYMELSSLRSEDTAVYYCARPGKSMDVWGQGTTVTVSS
VL: B8 VL with V91R, S92A, N93A
notes: human IgG1
For B10, the Kd in assay [1] came out at 1.41 nM; in assay [2] it was 0.35 nM; in assay [3], 9.08 nM. This molecule also returned an MFI with mouse TREM2 on cells of 9770 MFI.

B11: Ab57 (antibody, human IgG1, V domains shown)
VH: QVQLVQSGAEVKKPGASVKVSCKASGYTFTNYGISWVRQAPGQGLEWMGWISAYNGNTNYAQKLQGRVTMTTDTSTSTAYMELRSLRSDDTAVYYCARGPTKAYYGSGSYVVFDPWGQGTLVTVSS
VL: B8 VL with N53K, N93L, Y94F, I96L
notes: human IgG1
Turning to B11, the Kd is 0.598 nM in assay [1], 0.436 nM in assay [2] and 18.3 nM in assay [3]. The same molecule returned an MFI with mouse TREM2 on cells of 10200 MFI.

B12: Ab38 (antibody, human IgG1, V domains shown)
VH: QVQLVESGGGVVQPGRSLRLSCAASGFTFSTYGMHWVRQAPGKGLEWVAVIWYDGSNKYYADSVKGRFTISRDNSKNTLYLQMNSLRAEDTAVYYCARGAPVDYGGIEPEYFQHWGQGTLVTVSS
VL: B8 VL with V91I, S92D, N93F, Y94L, I96Y
notes: human IgG1
On to B12, for which the binding result in assay [1] was “no binding”. The Kd in assay [2] was 0.96 nM; in assay [3], 13.1 nM. In the assay with mouse TREM2 on cells, this molecule showed an MFI of 297 MFI.

B13: Ab46 (antibody, human IgG1, V domains shown)
VH: B10 VH with T59S, G100A, S102T, M103A, V105Y, T111L
VL: B8 VL with A51S, V91R
notes: human IgG1
Turning to B13, the dissociation constant (Kd) in assay [1] was 2.46 nM; in assay [2] it was 0.445 nM; in assay [3] it was 16.8 nM. In the assay with mouse TREM2 on cells, this molecule registered an MFI of 4260 MFI.

B14: Ab67 (antibody, human IgG1, V domains shown)
VH: B10 VH
VL: B8 VL with V91R, N93H, Y94F
notes: human IgG1
Turning to B14, the results for the dissociation constant (Kd) in assay [1], in assay [2] and in assay [3] were 2.92 nM, 0.66 nM and 34.5 nM, respectively. The same molecule gave an MFI in the assay with mouse TREM2 on cells of 6210 MFI.

B15: Ab49 (antibody, human IgG1, V domains shown)
VH: B10 VH with T59S, G100A, S102T, M103A, V105Y, T111L
VL: B8 VL with N53K, V91R, S92T, N93S, Y94H
notes: human IgG1
With B15, the Kd is 2.08 nM in assay [1], 0.435 nM in assay [2] and 17.4 nM in assay [3]. In addition, the MFI with mouse TREM2 on cells was found to be 4320 MFI.

B16: Ab47 (antibody, human IgG1, V domains shown)
VH: B10 VH
VL: B8 VL with A9G, V91R, S92I, N93L
notes: human IgG1
Take B16: the Kd was determined as 1.45 nM in assay [1], 0.431 nM in assay [2] and 7.37 nM in assay [3]. In the assay with mouse TREM2 on cells, this molecule yielded an MFI of 10100 MFI.

B17: Ab15 (antibody, human IgG1, V domains shown)
VH: QVQLQESGPGLVKPSQTLSLTCTVSGGSISSGGYYWSWIRQHPGKGLEWIGNIYYSGSTVYNPSLKSRVTISVDTSKNQFSLKLSSVTAADTAVYYCARGLYGYGVLDVWGQGTMVTVSS
VL: DIQMTQSPSSLSASVGDRVTITCQASQDISNYLNWYQQKPGKAPKLLIYDASNLETGVPSRFSGSGSGTDFTFTISSLQPEDIATYYCQQFDTYPTFGGGTKVEIK
notes: human IgG1
Regarding B17, the Kd in assay [1] stood at 2.8 nM; in assay [2], 0.605 nM; in assay [3], 3.03 nM. In the assay with mouse TREM2 on cells, the MFI was found to be 4760 MFI.

B18: Ab11 (antibody, human IgG1, V domains shown)
VH: EVQLVQSGAEVKKPGESLKISCKGSGYSFTTYWIGWVRQMPGKGLEWMGIIYPGDSDTRYSPSFQGQVTISADKSISTAYLQWSSLKASDTAMYYCARAGHYDGGHLGMDVWGQGTTVTVSS
VL: EIVLTQSPGTLSLSPGERATLSCRASQSVSSDYLAWYQQKPGQAPRLLIYGASSRATGIPDRFSGSGSGTDFTLTISRLEPEDFAVYYCQQDYSYPWTFGGGTKVEIK
notes: human IgG1
Consider B18, for which the Kd in assay [1] was 1.19 nM; in assay [2], 0.934 nM; in assay [3], 7.2 nM. In the assay with mouse TREM2 on cells, the MFI turned out to be 5500 MFI.

B19: Ab16 (antibody, human IgG1, V domains shown)
VH: QLQLQESGPGLVKPSETLSLTCTVSGGSISSNSYYWGWIRQPPGKGLEWIGSIYYSGSTYYNPSLKSRVTISVDTSKNQFSLKLSSVTAADTAVYYCARGVLGYGVFDYWGQGTLVTVSS
VL: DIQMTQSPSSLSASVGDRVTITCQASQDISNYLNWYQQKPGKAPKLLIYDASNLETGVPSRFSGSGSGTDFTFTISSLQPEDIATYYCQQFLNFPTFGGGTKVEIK
notes: human IgG1
In the case of B19, the Kd in assay [1] was found to be 1.36 nM; in assay [2], 1.09 nM; in assay [3], 2.47 nM. The MFI with mouse TREM2 on cells was 6380 MFI.

B20: Ab17 (antibody, human IgG1, V domains shown)
VH: B19 VH
VL: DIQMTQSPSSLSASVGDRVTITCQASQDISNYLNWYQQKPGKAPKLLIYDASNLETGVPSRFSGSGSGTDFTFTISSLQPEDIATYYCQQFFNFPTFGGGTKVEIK
notes: human IgG1
For the molecule B20, the Kd in assay [1] was determined as 1.67 nM; in assay [2], 0.792 nM; in assay [3] it was 3.46 nM. The molecule also came in with an MFI with mouse TREM2 on cells of 10300 MFI.

The values above are taken from US20260209350A1 (Alector, published 2026).
